Patent publication US20250152717A1 (published 2025)

Molecular target: T1, KRAS G12V (same sequence in NRAS and HRAS G12V) peptide on HLA-A*11:01 (human)
T1 peptide: VVGAVGVGK
Assay: stated without data

- binding result: recognises
B1: TCR 11N6 (TCR, V domains shown)
Valpha: QQGEEDPQALSIQEGENATMNCSYKTSINNLQWYRQNSGRGLVHLILIRSNEREKHSGRLRVTLDTSKKSSSLLITASRAADTASYFCATDPMNTNAGKSTFGDGTTLTVKP
Vbeta: GVAQSPRYKIIEKRQSVAFWCNPISGHATLYWYQQILGQGPKLLIQFQNNGVVDDSQLPKDRFSAERLKGVDSTLKIQPAKLEDSAVYLCASSPYGGSVSYEQYFGPGTRLTVT
